Literature values, collected in US12370207B2, “Low-intensity treatment of hematological disorders” (Celator Pharmaceuticals, Inc., priority 2018, dated 2025).

Columns and labels:
[1] = test system: hematological malignancies; conditions: single agent, ISICT patients
[2] = population mean

Molecule	median overall survival [1]	response rates [1]	Fi, bioavailability of first-order absorption process [2]	CL, clearance ([2]; coefficient of equation (WTKG/70)^0.641)
Nc1ccn([C@@H]2O[C@H](CO)[C@@H](O)[C@@H]2O)c(=O)n1 [LDAC]	7-10 months	less than 20%	–	–
Pegfilgrastim: exogenous (recombinant) GCSF agent (protein, UniProt P09919 31-207, looked up, PEGylated, N-terminal Met (pegfilgrastim), exogenous (recombinant) GCSF agent) Granulocyte …: TPLGPASSLPQSFLLKCLEQVRKIQGDGAALQEKLVSECATYKLCHPEELVLLGHSLGIPWAPLSSCPSQALQLAGCLSQLHSGLFLYQGLLQALEGISPELGPTLDTLQLDVADFATTIWQQMEELGMAPALQPTQGAMPAFASAFQRRAGGVLVASHLQSFLEVSYRVLRHLAQP	–	–	0.646	0.362 · (WTKG/70)^0.641 L/h
Filgrastim: exogenous (recombinant) GCSF agent (protein, UniProt P09919 31-207, looked up, N-terminal Met (filgrastim), exogenous (recombinant) GCSF agent) Granulocyte …: TPLGPASSLPQSFLLKCLEQVRKIQGDGAALQEKLVSECATYKLCHPEELVLLGHSLGIPWAPLSSCPSQALQLAGCLSQLHSGLFLYQGLLQALEGISPELGPTLDTLQLDVADFATTIWQQMEELGMAPALQPTQGAMPAFASAFQRRAGGVLVASHLQSFLEVSYRVLRHLAQP	–	–	0.105	–
